Here are results for one molecule from patent US20180142000A1 (NATIONAL RESEARCH COUNCIL OF CANADA, published 2018).

This assay concerns the target FlagV1P. As to the kind of experiment: fluorescence microscopy with FITC-labeled pentabody on whole bacteria.

B1: C. jejuni strain 11168 flagella (other)
chain 1: GFRINTNVAALNAKANADLNSKSLDASLSRLSSGLRINSAADDASGMAIADSLRSQANTLGQAISNGNDALGILQTADKAMDEQLKILDTIKTKATQAAQDGQSLKTRTMLQADINRLMEELDNIANTTSFNGKQLLSGNFINQEFQIGASSNQTVKATIGATQSSKIGLTRFETGGRISTSGEVQFTLKNYNGIDDFQFQKVVISTSVGTGLGALADEINKNADKTGVRATFTVETRGIAAVRAGATSDTFAINGVKIGKVDYKDGDANGALVAAINSVKDTTGVEASIDANGQLLLTSREGRGIKIDGNIGGGAFINADMKENYGRLSLVKNDGKDILISGSNLSSAGFGATQFISQASVSLRESKGQIDANIADAMGFGSANKGVVLGGYSSVSAYMSSAGSGFSSGSGYSVGSGKNYSTGFANAIAISAASQLSTVYNVSAGSGFSSGSTLSQFATMKTTAFGVKDETAGVTTLKGAMAVMDIAETAITNLDQIRADIGSVQNQVTSTINNITVTQVNVKAAESQIRDVDFAAESANYSKANILAQSGSYAMAQANSVQQNVLRLLQ
chain 2: GFRINTNIGALNAHANSVVNARELDKSLSRLSSGLRINSAADDASGMAIADSLRSQAATLGQAINNGNDAIGILQTADKAMDEQLKILDTIKTKATQAAQDGQSLKTRTMLQADINRLMEELDNIANTTSFNGKQLLSGNFINQEFQIGASSNQTIKATIGATQSSKIGLTRFETGGRISSSGEVQFTLKNYNGIDDFQFQKVVISTSVGTGLGALAEEINKSADKTGVRATFTVETRGIAAVRAGTTSDTFAINGVTIGQVAYEDGDGNGALVAAINSVKDTTGVEASIDANGQLLLTSREGRGIKIDGNIGGGAFINADMKENYGRLSLVKNDGKDILISGSNLSSAGFGATQFISQASVSLRESKGRFDANIADAMGFGSANKGVVLGGYSSVSAYMSSAGSGFSSGSGYSVGSGKNYSTGFANAIAISAASQLSTVYNVSAGSGFSSGSTLSQFATMKTTAFGVKDETAGVTTLKGAMAVMDIAETATTNLDQIRADIGSVQNQLQVTINNITVTQVNVKAAESTIRDVDFAAESANFSKYNILAQSGSYAMSQANAVQQNVLKLLQ
With B1, the binding result is on record as “no binding”.
